Measured values: the supplement of paper PMC10065799, “High-throughput profiling of sequence recognition by tyrosine kinases and SH2 domains using bacterial peptide display” (eLife, 2023)

Test system: AncSZ
Assay: phosphorylation enrichment, bacterial display (enrichment ratio); higher = better substrate or ligand; peptides without Tyr show the background
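Further: 11-residue human phosphosite peptides and single-mutation variants displayed on the E. coli surface, counted by deep sequencing, each peptide's frequency after selection divided by its frequency in the unselected input library; frequency after pTyr selection over input frequency; kinase dosed for 20-30% of maximal phosphorylation in three min.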

Sequence	phosphorylation enrichment
GEPLSHTRFSL [TFRC_Y20_Y20H]	0.599
KGPNVCKKTVN [REV3L_Y1156_Y1156C]	0.644
HDKEFYSVHNK [MET_Y1235_Y1230H_YF]	1.14
SVIKEYQIRQV [USH2A_Y3623_G3618S]	0.648
EEDPEYKKKFR [FAM161A_Y278]	1.1
GIVKAYFVHAR [AIPL1_Y267_R270H_YF]	0.795
EIRTQDEAMAS [GFAP_Y242_Y242D]	0.688
RAILDYIASKY [GSTA3_Y74_N73D]	0.867
INMKEYCKKDF [NTN1_Y490_K489E_YF]	0.877
DGQVNYEELVQ [CALM1_Y139_F142L]	1.47
GAPATYEGDAR [CACNA1A_Y1013]	0.58
IHSGIYFKPES [L2HGDH_Y102_YF]	1.39
PYYASYPPSPD [GDAP2_Y491_T489A]	1.41
MWGSDYVQLSR [MAP3K4_Y582]	1.67
INITIYGKTFH [EFHC1_Y177_R182H]	1.11
PVQAAYQKVEA [HBB_Y131_V135E]	0.921
EYLQKYKGFKI [SYNE1_Y6953]	0.733

Sequence	phosphorylation enrichment
LTQRTYMLENA [GPAA1_Y49_S51L]	0.843
LEDDMYRKTCT [XPA_Y257]	2.07
ADRLEYSRTGL [MMUT_Y287_G284R]	0.66
RALRHYYKLNI [ETV6_Y401]	1.07
CYSSEYHYVGG [CTSC_Y345_Y340C]	4.45
MSRFIYSTDFF [NTRK1_Y676_D674Y_YF]	0.887
KRIETYFSKNF [PLP1_Y50_L46R_YF]	0.703
RRAKGYPIDLF [ITGB2_Y125_YF]	4.21
GDKENYGLPQP [BUB1_Y538_N534D]	0.873
GHMFAYDWISI [BEST1_Y227_L224M_YF]	1.47
PTEAQYRFIFM [PTPN11_Y511_Q506P_YF]	1.6
KDKLPYLYDDP [GPX2_Y125_P126L]	1.17
INPIIYAFVVE [CCR5_Y297_G301V]	1.25
DMDATYRPMYS [JUP_Y701]	0.678
YRAPGYREVVI [TNS2_Y673]	0.587
ASYGPYTRVQS [FOXL2_Y258]	0.551

Biological target: EPHB1 (UniProt P54762)
Sequence (P54762 whole entry, looked up): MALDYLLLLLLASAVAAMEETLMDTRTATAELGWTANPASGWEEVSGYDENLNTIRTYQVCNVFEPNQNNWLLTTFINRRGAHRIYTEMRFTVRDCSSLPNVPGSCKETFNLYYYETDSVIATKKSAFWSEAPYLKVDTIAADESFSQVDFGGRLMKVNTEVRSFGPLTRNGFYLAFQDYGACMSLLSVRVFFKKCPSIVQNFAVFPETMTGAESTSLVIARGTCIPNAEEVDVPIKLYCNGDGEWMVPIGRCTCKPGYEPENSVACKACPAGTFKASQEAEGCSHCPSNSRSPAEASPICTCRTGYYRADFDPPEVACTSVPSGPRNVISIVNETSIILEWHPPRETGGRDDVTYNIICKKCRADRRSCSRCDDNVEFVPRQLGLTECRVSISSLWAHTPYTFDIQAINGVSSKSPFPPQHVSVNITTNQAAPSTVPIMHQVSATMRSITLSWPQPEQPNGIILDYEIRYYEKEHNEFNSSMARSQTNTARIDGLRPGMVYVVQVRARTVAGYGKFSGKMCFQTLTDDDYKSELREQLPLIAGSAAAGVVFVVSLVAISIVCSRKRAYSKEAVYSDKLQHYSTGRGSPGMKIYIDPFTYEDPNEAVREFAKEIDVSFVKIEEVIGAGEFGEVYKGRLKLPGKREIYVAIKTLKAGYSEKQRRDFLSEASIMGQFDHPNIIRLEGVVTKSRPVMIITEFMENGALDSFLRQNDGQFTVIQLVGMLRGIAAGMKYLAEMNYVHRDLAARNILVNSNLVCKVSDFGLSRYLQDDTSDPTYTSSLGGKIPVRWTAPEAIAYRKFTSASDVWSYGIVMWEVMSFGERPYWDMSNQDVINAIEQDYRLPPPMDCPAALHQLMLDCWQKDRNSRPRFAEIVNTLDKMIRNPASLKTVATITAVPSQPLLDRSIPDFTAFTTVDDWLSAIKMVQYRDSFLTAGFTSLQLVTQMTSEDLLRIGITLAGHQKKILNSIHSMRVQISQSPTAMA
Assay: as above

Sequence	phosphorylation enrichment
GEPLSHTRFSL [TFRC_Y20_Y20H]	0.449
KGPNVCKKTVN [REV3L_Y1156_Y1156C]	0.457
HDKEFYSVHNK [MET_Y1235_Y1230H_YF]	0.455
SVIKEYQIRQV [USH2A_Y3623_G3618S]	0.505
EEDPEYKKKFR [FAM161A_Y278]	0.427
GIVKAYFVHAR [AIPL1_Y267_R270H_YF]	0.422
EIRTQDEAMAS [GFAP_Y242_Y242D]	0.515
RAILDYIASKY [GSTA3_Y74_N73D]	0.456
INMKEYCKKDF [NTN1_Y490_K489E_YF]	0.66
DGQVNYEELVQ [CALM1_Y139_F142L]	1.04
GAPATYEGDAR [CACNA1A_Y1013]	0.354
IHSGIYFKPES [L2HGDH_Y102_YF]	0.996
PYYASYPPSPD [GDAP2_Y491_T489A]	10.8
MWGSDYVQLSR [MAP3K4_Y582]	9.41
INITIYGKTFH [EFHC1_Y177_R182H]	0.546
PVQAAYQKVEA [HBB_Y131_V135E]	0.54
EYLQKYKGFKI [SYNE1_Y6953]	0.427

Sequence	phosphorylation enrichment
LTQRTYMLENA [GPAA1_Y49_S51L]	0.783
LEDDMYRKTCT [XPA_Y257]	1.15
ADRLEYSRTGL [MMUT_Y287_G284R]	0.309
RALRHYYKLNI [ETV6_Y401]	1.29
CYSSEYHYVGG [CTSC_Y345_Y340C]	5.54
MSRFIYSTDFF [NTRK1_Y676_D674Y_YF]	2.29
KRIETYFSKNF [PLP1_Y50_L46R_YF]	0.43
RRAKGYPIDLF [ITGB2_Y125_YF]	0.566
GDKENYGLPQP [BUB1_Y538_N534D]	0.509
GHMFAYDWISI [BEST1_Y227_L224M_YF]	1.05
PTEAQYRFIFM [PTPN11_Y511_Q506P_YF]	0.876
KDKLPYLYDDP [GPX2_Y125_P126L]	0.947
INPIIYAFVVE [CCR5_Y297_G301V]	4.53
DMDATYRPMYS [JUP_Y701]	0.441
YRAPGYREVVI [TNS2_Y673]	0.445
ASYGPYTRVQS [FOXL2_Y258]	0.415

Biological target: EPHB2 (UniProt P29323)
Sequence (P29323 whole entry, looked up): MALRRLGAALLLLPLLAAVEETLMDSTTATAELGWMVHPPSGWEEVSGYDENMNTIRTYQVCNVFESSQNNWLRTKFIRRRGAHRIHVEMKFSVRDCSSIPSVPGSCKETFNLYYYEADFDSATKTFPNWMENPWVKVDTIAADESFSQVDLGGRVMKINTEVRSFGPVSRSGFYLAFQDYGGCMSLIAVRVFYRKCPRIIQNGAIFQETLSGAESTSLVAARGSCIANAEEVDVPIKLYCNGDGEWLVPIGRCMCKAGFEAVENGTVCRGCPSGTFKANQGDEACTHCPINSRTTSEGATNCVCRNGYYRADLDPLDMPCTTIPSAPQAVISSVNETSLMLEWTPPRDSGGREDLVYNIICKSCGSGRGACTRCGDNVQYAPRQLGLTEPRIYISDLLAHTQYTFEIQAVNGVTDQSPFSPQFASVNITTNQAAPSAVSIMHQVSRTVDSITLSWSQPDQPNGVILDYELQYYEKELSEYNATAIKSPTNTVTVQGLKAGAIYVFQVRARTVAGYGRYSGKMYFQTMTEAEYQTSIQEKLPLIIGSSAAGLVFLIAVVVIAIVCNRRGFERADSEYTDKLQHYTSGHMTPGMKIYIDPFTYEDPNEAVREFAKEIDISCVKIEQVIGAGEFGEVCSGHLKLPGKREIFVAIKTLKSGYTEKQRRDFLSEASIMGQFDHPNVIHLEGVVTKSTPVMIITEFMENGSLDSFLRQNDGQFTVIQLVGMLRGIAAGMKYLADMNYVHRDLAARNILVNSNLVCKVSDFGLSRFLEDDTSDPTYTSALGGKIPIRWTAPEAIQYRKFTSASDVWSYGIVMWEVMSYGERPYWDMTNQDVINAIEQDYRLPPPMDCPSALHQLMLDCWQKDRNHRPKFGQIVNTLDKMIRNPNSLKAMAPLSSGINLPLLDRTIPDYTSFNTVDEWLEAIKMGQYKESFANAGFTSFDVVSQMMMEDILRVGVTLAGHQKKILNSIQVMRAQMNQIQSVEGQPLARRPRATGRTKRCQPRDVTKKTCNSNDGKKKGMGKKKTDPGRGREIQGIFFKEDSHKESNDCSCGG
Assay: as above

Sequence	phosphorylation enrichment
GEPLSHTRFSL [TFRC_Y20_Y20H]	0.36
KGPNVCKKTVN [REV3L_Y1156_Y1156C]	0.525
HDKEFYSVHNK [MET_Y1235_Y1230H_YF]	0.643
SVIKEYQIRQV [USH2A_Y3623_G3618S]	0.346
EEDPEYKKKFR [FAM161A_Y278]	0.441
GIVKAYFVHAR [AIPL1_Y267_R270H_YF]	0.494
EIRTQDEAMAS [GFAP_Y242_Y242D]	0.42
RAILDYIASKY [GSTA3_Y74_N73D]	0.646
INMKEYCKKDF [NTN1_Y490_K489E_YF]	0.678
DGQVNYEELVQ [CALM1_Y139_F142L]	0.826
GAPATYEGDAR [CACNA1A_Y1013]	0.499
IHSGIYFKPES [L2HGDH_Y102_YF]	0.674
PYYASYPPSPD [GDAP2_Y491_T489A]	17.7
MWGSDYVQLSR [MAP3K4_Y582]	6.29
INITIYGKTFH [EFHC1_Y177_R182H]	0.513
PVQAAYQKVEA [HBB_Y131_V135E]	0.559
EYLQKYKGFKI [SYNE1_Y6953]	0.332

Sequence	phosphorylation enrichment
LTQRTYMLENA [GPAA1_Y49_S51L]	0.541
LEDDMYRKTCT [XPA_Y257]	1.03
ADRLEYSRTGL [MMUT_Y287_G284R]	0.722
RALRHYYKLNI [ETV6_Y401]	0.415
CYSSEYHYVGG [CTSC_Y345_Y340C]	5.91
MSRFIYSTDFF [NTRK1_Y676_D674Y_YF]	2.11
KRIETYFSKNF [PLP1_Y50_L46R_YF]	0.417
RRAKGYPIDLF [ITGB2_Y125_YF]	0.605
GDKENYGLPQP [BUB1_Y538_N534D]	0.794
GHMFAYDWISI [BEST1_Y227_L224M_YF]	0.933
PTEAQYRFIFM [PTPN11_Y511_Q506P_YF]	0.767
KDKLPYLYDDP [GPX2_Y125_P126L]	0.765
INPIIYAFVVE [CCR5_Y297_G301V]	3.82
DMDATYRPMYS [JUP_Y701]	0.525
YRAPGYREVVI [TNS2_Y673]	0.43
ASYGPYTRVQS [FOXL2_Y258]	0.583

Biological target: FGFR1 (UniProt P11362)
Sequence (P11362 whole entry, looked up): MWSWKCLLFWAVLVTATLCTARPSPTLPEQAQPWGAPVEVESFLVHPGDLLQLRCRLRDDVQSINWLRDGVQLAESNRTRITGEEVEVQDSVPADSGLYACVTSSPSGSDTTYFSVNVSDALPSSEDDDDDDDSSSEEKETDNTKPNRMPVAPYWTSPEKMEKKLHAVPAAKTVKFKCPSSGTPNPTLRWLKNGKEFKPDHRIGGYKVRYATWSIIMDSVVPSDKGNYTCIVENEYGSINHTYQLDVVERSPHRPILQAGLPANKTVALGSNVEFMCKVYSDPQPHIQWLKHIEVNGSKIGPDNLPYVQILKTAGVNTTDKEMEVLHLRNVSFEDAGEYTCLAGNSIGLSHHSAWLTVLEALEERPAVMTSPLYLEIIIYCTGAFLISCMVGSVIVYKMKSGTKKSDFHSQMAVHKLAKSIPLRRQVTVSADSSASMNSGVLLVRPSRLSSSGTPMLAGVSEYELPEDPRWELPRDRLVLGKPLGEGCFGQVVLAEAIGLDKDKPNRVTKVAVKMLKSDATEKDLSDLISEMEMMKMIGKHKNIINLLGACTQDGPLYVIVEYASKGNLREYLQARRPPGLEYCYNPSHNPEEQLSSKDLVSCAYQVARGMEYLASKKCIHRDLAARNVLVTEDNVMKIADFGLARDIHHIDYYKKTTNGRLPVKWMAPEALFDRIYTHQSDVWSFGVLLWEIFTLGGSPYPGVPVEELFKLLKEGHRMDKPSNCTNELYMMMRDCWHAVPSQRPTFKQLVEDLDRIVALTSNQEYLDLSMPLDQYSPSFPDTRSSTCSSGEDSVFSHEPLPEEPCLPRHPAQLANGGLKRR
Assay: as above

Sequence	phosphorylation enrichment
GEPLSHTRFSL [TFRC_Y20_Y20H]	0.424
KGPNVCKKTVN [REV3L_Y1156_Y1156C]	0.529
HDKEFYSVHNK [MET_Y1235_Y1230H_YF]	0.804
SVIKEYQIRQV [USH2A_Y3623_G3618S]	0.377
EEDPEYKKKFR [FAM161A_Y278]	0.66
GIVKAYFVHAR [AIPL1_Y267_R270H_YF]	0.388
EIRTQDEAMAS [GFAP_Y242_Y242D]	0.498
RAILDYIASKY [GSTA3_Y74_N73D]	0.512
INMKEYCKKDF [NTN1_Y490_K489E_YF]	0.512
DGQVNYEELVQ [CALM1_Y139_F142L]	0.819
GAPATYEGDAR [CACNA1A_Y1013]	0.543
IHSGIYFKPES [L2HGDH_Y102_YF]	0.702
PYYASYPPSPD [GDAP2_Y491_T489A]	4.96
MWGSDYVQLSR [MAP3K4_Y582]	7.1
INITIYGKTFH [EFHC1_Y177_R182H]	0.429
PVQAAYQKVEA [HBB_Y131_V135E]	0.709
EYLQKYKGFKI [SYNE1_Y6953]	0.256

Sequence	phosphorylation enrichment
LTQRTYMLENA [GPAA1_Y49_S51L]	0.866
LEDDMYRKTCT [XPA_Y257]	1.24
ADRLEYSRTGL [MMUT_Y287_G284R]	0.764
RALRHYYKLNI [ETV6_Y401]	1.46
CYSSEYHYVGG [CTSC_Y345_Y340C]	13
MSRFIYSTDFF [NTRK1_Y676_D674Y_YF]	1.47
KRIETYFSKNF [PLP1_Y50_L46R_YF]	0.516
RRAKGYPIDLF [ITGB2_Y125_YF]	1.06
GDKENYGLPQP [BUB1_Y538_N534D]	0.452
GHMFAYDWISI [BEST1_Y227_L224M_YF]	3.48
PTEAQYRFIFM [PTPN11_Y511_Q506P_YF]	1.9
KDKLPYLYDDP [GPX2_Y125_P126L]	0.5
INPIIYAFVVE [CCR5_Y297_G301V]	1
DMDATYRPMYS [JUP_Y701]	0.544
YRAPGYREVVI [TNS2_Y673]	0.52
ASYGPYTRVQS [FOXL2_Y258]	0.422
